Assay results from the supplement of paper PMC10065799, “High-throughput profiling of sequence recognition by tyrosine kinases and SH2 domains using bacterial peptide display” (eLife, 2023).

Experiments:
c-Src SH2 = experiment: SH2 binding enrichment of the phosphorylated peptide, bacterial display (enrichment ratio); higher = better substrate or ligand; peptides without Tyr show the background
SHP2-C SH2 = experiment: as above
Grb2 SH2 = Grb2 SH2 (UniProt P62993); experiment: as above
Fyn = Fyn (UniProt P06241); experiment: phosphorylation enrichment, bacterial display (enrichment ratio); higher = better substrate or ligand; peptides without Tyr show the background
MERTK = MERTK (UniProt Q12866); experiment: as above
Jak2 = Jak2 (UniProt O60674); experiment: as above
c-Src = experiment: as above
EPHB1 = EPHB1 (UniProt P54762); experiment: as above
c-Abl (mouse) = experiment: as above
Hck = Hck (UniProt P08631); experiment: as above
FGFR3 = FGFR3 (UniProt P22607); experiment: as above
EPHB2 = EPHB2 (UniProt P29323); experiment: as above
FGFR1 = FGFR1 (UniProt P11362); experiment: as above
AncSZ = experiment: as above
Fer (mouse) = experiment: as above
Fes = Fes (UniProt P07332); experiment: as above
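Wherever SH2 binding enrichment of the phosphorylated peptide, bacterial display is given: peptide library displayed on the E. coli surface as eCPX fusions, selected cells deep-sequenced, score is each peptide's frequency after selection divided by its frequency in the input.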
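Wherever phosphorylation enrichment, bacterial display is given: 11-residue human phosphosite peptides and single-mutation variants displayed on the E. coli surface, counted by deep sequencing, each peptide's frequency after selection divided by its frequency in the unselected input library; frequency after pTyr selection over input frequency; kinase dosed for 20-30% of maximal phosphorylation in three min.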

Sequence of EPHB1 (P54762 whole entry, looked up): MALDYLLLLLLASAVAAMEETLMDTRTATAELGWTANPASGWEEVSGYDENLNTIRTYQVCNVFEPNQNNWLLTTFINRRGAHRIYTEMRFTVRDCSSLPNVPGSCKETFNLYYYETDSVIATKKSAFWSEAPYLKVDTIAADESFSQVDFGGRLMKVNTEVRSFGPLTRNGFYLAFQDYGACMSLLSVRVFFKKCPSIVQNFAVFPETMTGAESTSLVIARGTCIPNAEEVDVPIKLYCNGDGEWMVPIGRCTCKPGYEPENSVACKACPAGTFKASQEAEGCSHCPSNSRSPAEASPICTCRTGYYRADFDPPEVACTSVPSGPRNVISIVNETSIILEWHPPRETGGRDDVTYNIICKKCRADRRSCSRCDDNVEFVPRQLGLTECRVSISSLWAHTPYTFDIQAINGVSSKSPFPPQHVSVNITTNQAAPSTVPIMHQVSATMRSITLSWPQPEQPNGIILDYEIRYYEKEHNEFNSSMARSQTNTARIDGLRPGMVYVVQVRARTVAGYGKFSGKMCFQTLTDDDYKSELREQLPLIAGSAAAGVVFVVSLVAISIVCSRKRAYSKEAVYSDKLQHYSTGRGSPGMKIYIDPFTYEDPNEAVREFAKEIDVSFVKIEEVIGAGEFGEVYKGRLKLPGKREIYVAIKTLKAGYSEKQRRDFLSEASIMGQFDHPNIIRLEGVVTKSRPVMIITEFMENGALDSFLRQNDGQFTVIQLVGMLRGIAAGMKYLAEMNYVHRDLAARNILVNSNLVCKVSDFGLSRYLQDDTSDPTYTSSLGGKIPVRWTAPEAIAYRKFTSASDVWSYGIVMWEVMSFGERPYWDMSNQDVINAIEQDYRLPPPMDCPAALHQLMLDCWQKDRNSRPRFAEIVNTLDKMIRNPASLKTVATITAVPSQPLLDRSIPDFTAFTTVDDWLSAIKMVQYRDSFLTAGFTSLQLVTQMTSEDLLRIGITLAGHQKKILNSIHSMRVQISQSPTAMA
Sequence of MERTK (Q12866 whole entry, looked up): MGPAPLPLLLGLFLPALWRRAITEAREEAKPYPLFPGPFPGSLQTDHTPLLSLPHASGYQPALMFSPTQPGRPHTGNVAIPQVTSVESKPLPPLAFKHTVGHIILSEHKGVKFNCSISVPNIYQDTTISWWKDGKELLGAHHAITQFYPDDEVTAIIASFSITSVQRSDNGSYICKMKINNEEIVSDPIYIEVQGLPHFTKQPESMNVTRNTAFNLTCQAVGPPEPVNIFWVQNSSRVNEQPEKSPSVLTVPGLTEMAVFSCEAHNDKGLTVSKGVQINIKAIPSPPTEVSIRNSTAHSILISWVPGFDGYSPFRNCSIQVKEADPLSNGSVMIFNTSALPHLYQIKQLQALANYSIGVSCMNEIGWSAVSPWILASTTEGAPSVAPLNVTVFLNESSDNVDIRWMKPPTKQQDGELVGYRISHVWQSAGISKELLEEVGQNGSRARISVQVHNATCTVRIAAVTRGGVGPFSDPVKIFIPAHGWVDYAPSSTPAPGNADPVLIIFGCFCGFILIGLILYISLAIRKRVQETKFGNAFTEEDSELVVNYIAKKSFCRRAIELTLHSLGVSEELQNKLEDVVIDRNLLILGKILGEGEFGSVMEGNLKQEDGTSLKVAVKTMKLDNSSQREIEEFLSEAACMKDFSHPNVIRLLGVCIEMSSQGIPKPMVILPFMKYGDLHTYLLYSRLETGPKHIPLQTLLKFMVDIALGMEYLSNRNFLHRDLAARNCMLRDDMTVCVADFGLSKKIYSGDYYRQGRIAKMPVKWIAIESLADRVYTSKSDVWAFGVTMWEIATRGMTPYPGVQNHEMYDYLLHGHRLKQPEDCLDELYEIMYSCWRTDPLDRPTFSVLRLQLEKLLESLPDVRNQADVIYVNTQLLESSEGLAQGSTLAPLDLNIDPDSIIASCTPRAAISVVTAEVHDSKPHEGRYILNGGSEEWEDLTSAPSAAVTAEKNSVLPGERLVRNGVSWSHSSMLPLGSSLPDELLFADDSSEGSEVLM
Sequence of FGFR3 (P22607 whole entry, looked up): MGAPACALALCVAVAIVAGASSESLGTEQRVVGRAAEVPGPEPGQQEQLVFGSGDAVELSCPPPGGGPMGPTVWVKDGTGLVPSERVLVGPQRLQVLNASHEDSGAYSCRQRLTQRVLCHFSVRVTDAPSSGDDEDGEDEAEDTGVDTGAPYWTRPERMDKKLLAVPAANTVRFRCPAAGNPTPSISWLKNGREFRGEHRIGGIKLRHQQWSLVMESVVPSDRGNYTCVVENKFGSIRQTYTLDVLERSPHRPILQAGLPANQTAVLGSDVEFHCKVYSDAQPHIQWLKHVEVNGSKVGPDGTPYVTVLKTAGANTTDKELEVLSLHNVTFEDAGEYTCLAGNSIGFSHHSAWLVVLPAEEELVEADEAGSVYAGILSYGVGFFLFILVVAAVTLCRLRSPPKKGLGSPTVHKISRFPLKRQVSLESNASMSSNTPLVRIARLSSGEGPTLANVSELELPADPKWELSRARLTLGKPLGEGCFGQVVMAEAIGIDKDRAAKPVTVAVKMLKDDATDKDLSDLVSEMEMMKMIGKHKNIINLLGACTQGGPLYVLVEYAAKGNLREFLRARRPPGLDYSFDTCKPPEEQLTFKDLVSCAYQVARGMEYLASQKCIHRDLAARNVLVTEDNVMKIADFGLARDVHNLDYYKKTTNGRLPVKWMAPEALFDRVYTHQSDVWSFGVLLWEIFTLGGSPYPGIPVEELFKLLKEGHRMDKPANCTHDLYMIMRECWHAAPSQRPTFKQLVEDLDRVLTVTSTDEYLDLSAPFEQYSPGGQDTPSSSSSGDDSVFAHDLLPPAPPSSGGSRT
Sequence of EPHB2 (P29323 whole entry, looked up): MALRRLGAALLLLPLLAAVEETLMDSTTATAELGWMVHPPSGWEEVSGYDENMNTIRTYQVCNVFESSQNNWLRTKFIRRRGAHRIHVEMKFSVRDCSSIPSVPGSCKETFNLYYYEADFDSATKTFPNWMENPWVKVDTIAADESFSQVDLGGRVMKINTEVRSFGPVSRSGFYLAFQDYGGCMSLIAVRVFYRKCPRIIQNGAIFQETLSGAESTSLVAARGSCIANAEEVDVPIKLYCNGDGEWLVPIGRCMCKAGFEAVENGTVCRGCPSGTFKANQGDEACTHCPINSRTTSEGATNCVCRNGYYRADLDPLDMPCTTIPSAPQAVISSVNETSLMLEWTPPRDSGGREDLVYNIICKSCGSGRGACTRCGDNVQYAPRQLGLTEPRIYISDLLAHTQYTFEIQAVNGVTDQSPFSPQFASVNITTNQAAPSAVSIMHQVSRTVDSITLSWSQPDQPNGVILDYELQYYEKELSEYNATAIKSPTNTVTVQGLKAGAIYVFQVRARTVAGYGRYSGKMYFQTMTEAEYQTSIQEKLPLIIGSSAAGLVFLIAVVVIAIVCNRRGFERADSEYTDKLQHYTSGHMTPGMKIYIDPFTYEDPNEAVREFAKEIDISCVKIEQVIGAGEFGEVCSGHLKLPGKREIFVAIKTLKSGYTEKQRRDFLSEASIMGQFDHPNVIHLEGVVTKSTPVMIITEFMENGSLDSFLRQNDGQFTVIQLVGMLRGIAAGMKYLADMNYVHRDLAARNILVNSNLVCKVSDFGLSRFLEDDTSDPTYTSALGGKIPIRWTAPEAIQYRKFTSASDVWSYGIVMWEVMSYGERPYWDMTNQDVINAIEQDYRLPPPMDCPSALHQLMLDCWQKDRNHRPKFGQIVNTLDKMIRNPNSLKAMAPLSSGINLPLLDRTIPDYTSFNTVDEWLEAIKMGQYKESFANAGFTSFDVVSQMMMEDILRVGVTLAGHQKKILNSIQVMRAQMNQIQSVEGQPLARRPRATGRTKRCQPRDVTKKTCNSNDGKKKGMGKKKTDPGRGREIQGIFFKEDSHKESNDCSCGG
Sequence of Fyn (P06241 whole entry, looked up): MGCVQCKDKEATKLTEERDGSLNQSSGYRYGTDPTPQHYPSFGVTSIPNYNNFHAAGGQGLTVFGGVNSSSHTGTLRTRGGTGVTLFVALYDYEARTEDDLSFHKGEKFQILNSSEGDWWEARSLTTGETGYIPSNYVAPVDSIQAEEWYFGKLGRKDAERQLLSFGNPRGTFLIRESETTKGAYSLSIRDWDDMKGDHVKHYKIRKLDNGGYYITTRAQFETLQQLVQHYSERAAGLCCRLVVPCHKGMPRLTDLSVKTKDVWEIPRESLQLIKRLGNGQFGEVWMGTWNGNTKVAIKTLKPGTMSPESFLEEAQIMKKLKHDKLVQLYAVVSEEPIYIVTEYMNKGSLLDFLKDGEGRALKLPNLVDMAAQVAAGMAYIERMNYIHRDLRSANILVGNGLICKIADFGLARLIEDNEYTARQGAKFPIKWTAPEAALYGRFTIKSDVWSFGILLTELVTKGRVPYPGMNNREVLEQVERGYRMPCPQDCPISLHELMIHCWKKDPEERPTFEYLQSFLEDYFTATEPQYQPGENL
Sequence of Hck (P08631 whole entry, looked up): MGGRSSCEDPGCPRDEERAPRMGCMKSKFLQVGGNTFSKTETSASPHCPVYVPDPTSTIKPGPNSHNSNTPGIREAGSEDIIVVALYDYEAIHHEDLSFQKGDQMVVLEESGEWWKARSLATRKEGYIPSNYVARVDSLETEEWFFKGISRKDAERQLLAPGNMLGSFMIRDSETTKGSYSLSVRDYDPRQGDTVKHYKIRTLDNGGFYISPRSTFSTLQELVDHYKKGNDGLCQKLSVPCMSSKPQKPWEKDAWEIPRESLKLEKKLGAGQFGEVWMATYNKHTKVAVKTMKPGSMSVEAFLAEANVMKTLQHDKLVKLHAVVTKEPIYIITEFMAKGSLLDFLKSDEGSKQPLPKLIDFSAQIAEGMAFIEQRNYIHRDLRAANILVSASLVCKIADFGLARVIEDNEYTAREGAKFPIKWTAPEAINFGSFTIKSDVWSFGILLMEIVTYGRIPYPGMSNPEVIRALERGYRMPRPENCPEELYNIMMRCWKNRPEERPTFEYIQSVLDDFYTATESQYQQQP

SH2 binding enrichment (c-Src SH2) | SH2 binding enrichment (SHP2-C SH2) | SH2 binding enrichment (Grb2 SH2) | Sequence | phosphorylation enrichment (Fyn) | phosphorylation enrichment (MERTK) | phosphorylation enrichment (Jak2) | phosphorylation enrichment (c-Src) | phosphorylation enrichment (EPHB1) | phosphorylation enrichment (c-Abl (mouse)) | phosphorylation enrichment (Hck) | phosphorylation enrichment (FGFR3) | phosphorylation enrichment (EPHB2) | phosphorylation enrichment (FGFR1) | phosphorylation enrichment (AncSZ) | phosphorylation enrichment (Fer (mouse)) | phosphorylation enrichment (Fes)
0.726 | 1.11 | 0.885 | VPDANYTSDEE [STK33_Y439] | 0.701 | 0.621 | 1.19 | 0.586 | 0.649 | 2.42 | 0.61 | 0.796 | 0.801 | 0.699 | 1.54 | 0.658 | 1.38
0.555 | 0.694 | 1.11 | VQSASYLNACL [MCM3AP_Y864] | 0.419 | 0.46 | 0.674 | 0.495 | 0.418 | 0.645 | 0.384 | 0.551 | 0.473 | 0.381 | 0.759 | 0.47 | 0.813
0.343 | 0.398 | 0.665 | VRKRSYSAGNA [KANK1_Y324] | 0.441 | 0.444 | 0.441 | 0.519 | 0.495 | 0.564 | 0.48 | 0.492 | 0.436 | 0.396 | 0.615 | 0.457 | 0.621
0.695 | 0.893 | 1 | VRSNHYAPEED [TJP1_Y1346_D1347A] | 0.473 | 0.462 | 0.955 | 0.434 | 0.529 | 0.728 | 0.498 | 0.605 | 0.611 | 0.426 | 0.941 | 0.469 | 0.984
0.339 | 0.575 | 0.79 | VSSIPYGQPKQ [NEU1_Y251_G248S] | 0.338 | 0.425 | 0.844 | 0.447 | 0.555 | 0.464 | 0.493 | 0.41 | 0.345 | 0.39 | 0.549 | 0.324 | 0.605
0.782 | 0.604 | 0.828 | VTAVAYRLAEQ [HK1_Y461] | 0.473 | 0.349 | 0.543 | 0.385 | 0.47 | 0.509 | 0.475 | 0.584 | 0.424 | 0.495 | 0.633 | 0.446 | 0.792
0.647 | 0.807 | 0.852 | VVCKNYAEAKD [ALB_Y343_D338V] | 0.512 | 0.457 | 0.875 | 0.477 | 0.515 | 0.785 | 0.519 | 0.693 | 0.581 | 0.482 | 0.932 | 0.5 | 1.1
0.561 | 0.987 | 0.926 | VVGMLYVGRLP [LAMA2_Y2886_G2889R] | 0.442 | 0.426 | 0.98 | 0.422 | 0.481 | 0.654 | 0.455 | 0.602 | 0.643 | 0.647 | 1.22 | 0.552 | 1.04
